One assay concerns the target HLA-B*46:01. Put plainly: IEDB peptide-MHC binding, purified MHC/direct/fluorescence; filed as Kd, often an IC50 or EC50 that approximates it; ≥ and ≤ were set here for values at or beyond the usual limits of such assays.
The next assay has as its target HLA-A*02:12. The assay is described as above.
A further assay has as its target HLA-A*02:01. The description is as above.
Assay [1] addresses HLA-B*40:01. Described as above. To be noted: source organism: Clostridium botulinum.
Assay [2] addresses HLA-A*01:01. The description is as above. As to conditions: source organism: Clostridium botulinum.
In a further assay the target is HLA-B*15:01. The assay is described as above.
Another assay concerns the target HLA-A*03:01. Described as above.
Assay [3] addresses HLA-B*27:05. The assay is described as above. To be noted: source organism: Clostridium botulinum.
In assay [4] the target is HLA-A*11:01. The description is as above. As to conditions: source organism: Clostridium botulinum.
Assay [5] concerns the target HLA-B*58:01. The assay is described as above. As to conditions: source organism: Clostridium botulinum.
The next assay addresses HLA-A*02:03. The assay is described as above.
In assay [6] the target is HLA-B*08:01. Described as above. To be noted: source organism: Clostridium botulinum NCTC 2916.
The target of the next assay is HLA-A*02:06. Described as above. As to conditions: source organism: Clostridium botulinum NCTC 2916.
The target in a further assay is HLA-A*69:01. Described as above. As to conditions: source organism: Clostridium botulinum.
In another assay the target is HLA-A*02:11. The assay is described as above.
In a further assay the target is HLA-B*15:09. The description is as above. As to conditions: source organism: Clostridium botulinum NCTC 2916.
Assay [7] addresses HLA-B*44:02. The description is as above. As to conditions: source organism: Clostridium botulinum.
The target in another assay is HLA-B*08:02. The assay is described as above. As to conditions: source organism: Clostridium botulinum NCTC 2916.
Another assay addresses HLA-B*18:01. Described as above.
The target of a further assay is HLA-A*02:19. The assay is described as above.
Assay [8] has as its target HLA-B*07:02. The description is as above. As to conditions: source organism: Clostridium botulinum.
The next assay has as its target HLA-A*24:02. Described as above. As to conditions: source organism: Clostridium botulinum.
The target in assay [9] is HLA-A*31:01. Described as above. To be noted: source organism: Clostridium botulinum.
The next assay has as its target HLA-B*57:01. The assay is described as above. To be noted: source organism: Bacillus anthracis str. A0488.
Another assay has as its target HLA-A*26:01. Described as above. To be noted: source organism: Bacillus anthracis str. A0488.
The next assay addresses HLA-B*39:01. The assay is described as above. As to conditions: source organism: Bacillus anthracis str. A0488.
In a further assay the target is HLA-B*27:03. The assay is described as above. As to conditions: source organism: Bacillus anthracis str. A0488.
A further assay deals with HLA-A*68:02. The assay is described as above. As to conditions: source organism: Bacillus anthracis str. A0488.
The next assay addresses HLA-B*15:17. The assay is described as above. As to conditions: source organism: Bacillus anthracis str. A0488.
For the next assay, the target named is HLA-A*02:16. Described as above. As to conditions: source organism: Bacillus anthracis str. A0488.
The next assay deals with HLA-A*23:01. Described as above. As to conditions: source organism: Bacillus anthracis str. A0488.
The target of assay [10] is HLA-B*40:01. Description: IEDB peptide-MHC binding, purified MHC/competitive/fluorescence; filed as Kd, often an IC50 or EC50 that approximates it; ≥ and ≤ were set here for values at or beyond the usual limits of such assays. To be noted: source organism: Bacillus anthracis str. A0488.
Assay [11] concerns the target HLA-A*01:01. The description is as above. As to conditions: source organism: Bacillus anthracis str. A0488.
The target of assay [12] is HLA-B*27:05. Described as above. To be noted: source organism: Bacillus anthracis str. A0488.
Assay [13] addresses HLA-A*11:01. The description is as above. To be noted: source organism: Bacillus anthracis str. A0488.
Assay [14] deals with HLA-B*58:01. The assay is described as above. To be noted: source organism: Bacillus anthracis str. A0488.
The target of assay [15] is HLA-B*08:01. The description is as above. As to conditions: source organism: Bacillus anthracis str. A0488.
For another assay, the target named is HLA-B*14:02. The description is as above. As to conditions: source organism: Bacillus anthracis str. A0488.
For the next assay, the target named is HLA-A*30:01. Described as above. To be noted: source organism: Bacillus anthracis str. A0488.
Assay [16] addresses HLA-B*44:02. The description is as above. As to conditions: source organism: Bacillus anthracis str. A0488.
The target of assay [17] is HLA-B*07:02. Described as above. As to conditions: source organism: Bacillus anthracis str. A0488.
The target in a further assay is HLA-A*66:01. Described as above. To be noted: source organism: Bacillus anthracis str. A0488.
For another assay, the target named is HLA-B*51:01. Described as above. As to conditions: source organism: Bacillus anthracis str. A0488.
The target in a further assay is HLA-B*53:01. Described as above. To be noted: source organism: Bacillus anthracis str. A0488.
A further assay deals with HLA-A*30:02. Described as above. To be noted: source organism: Bacillus anthracis str. A0488.
In assay [18] the target is HLA-A*31:01. Description: IEDB peptide-MHC binding, purified MHC/competitive/fluorescence; ≥ and ≤ were set here for values at or beyond the usual limits of such assays. As to conditions: source organism: Homo sapiens.
The mark [19] stands for this setting: source organism: Clostridium botulinum.
Where [20] appears, read: source organism: Clostridium botulinum NCTC 2916.
The mark [21] stands for this setting: source organism: Bacillus anthracis str. A0488.

With RVYINVVVK, the Kd with HLA-B*46:01 (setting [19]) was at least 20 µM; with HLA-A*02:12 (setting [20]), 0.697 µM; in the assay with HLA-A*02:01 (setting [19]), 0.982 µM; with HLA-B*40:01 [1] it was at least 20 µM; with HLA-A*01:01 [2], at least 20 µM; with HLA-B*15:01 (setting [19]), at least 20 µM. Moreover, the dissociation constant (Kd) with HLA-A*03:01 (setting [19]) is 0.241 µM; with HLA-B*27:05 [3], at least 20 µM; with HLA-A*11:01 [4], 0.484 µM; in the assay with HLA-B*58:01 [5] it was at least 20 µM; with HLA-A*02:03 (setting [20]) it was 0.599 µM; with HLA-B*08:01 [6], at least 20 µM. The equilibrium dissociation constant (Kd) with HLA-A*02:06 is 0.263 µM; with HLA-A*69:01 it was at least 20 µM; in the assay with HLA-A*02:11 (setting [20]), 0.603 µM; with HLA-B*15:09, at least 20 µM; with HLA-B*44:02 [7] it was at least 20 µM; with HLA-B*08:02, at least 20 µM. Moreover, the Kd in the assay with HLA-B*18:01 (setting [19]) is at least 20 µM; with HLA-A*02:19 (setting [20]), 2.15 µM; with HLA-B*07:02 [8], at least 20 µM; in the assay with HLA-A*24:02, at least 20 µM; with HLA-A*31:01 [9] it was 0.231 µM.
Turning to WDAYIPHYV, the dissociation constant Kd in the assay with HLA-B*46:01 (setting [21]), with HLA-A*02:12 (setting [21]), with HLA-B*57:01, in the assay with HLA-A*02:01 (setting [21]), with HLA-B*15:01 (setting [21]) and with HLA-A*03:01 (setting [21]) was at least 20 µM each time. For the same sequence, the equilibrium dissociation constant (Kd) in the assay with HLA-A*02:03 (setting [21]) is at least 20 µM; in the assay with HLA-A*02:11 (setting [21]) it was at least 20 µM; with HLA-A*26:01, at least 20 µM; with HLA-B*39:01, at least 20 µM; with HLA-B*27:03, at least 20 µM; with HLA-A*68:02 it was at most 0.001 µM. The Kd in the assay with HLA-B*18:01 (setting [21]) is at least 20 µM; in the assay with HLA-A*02:19 (setting [21]), at least 20 µM; with HLA-B*15:17, at least 20 µM; with HLA-A*02:16, at least 20 µM; with HLA-A*23:01 it was at least 20 µM; with HLA-B*40:01 [10], at least 5 µM. The Kd with HLA-A*01:01 [11], with HLA-B*27:05 [12], with HLA-A*11:01 [13], with HLA-B*58:01 [14], in the assay with HLA-B*08:01 [15] and in the assay with HLA-B*14:02 was at least 5 µM each time. Moreover, the Kd in the assay with HLA-A*30:01 was at least 5 µM; with HLA-B*44:02 [16] it was at least 5 µM; with HLA-B*07:02 [17] it was at least 5 µM; with HLA-A*66:01, at least 5 µM; with HLA-B*51:01, 0.535 µM; in the assay with HLA-B*53:01 it was at least 5 µM. Also, in the assay with HLA-A*30:02, the Kd was at least 5 µM.
As to VTMGTGTFGR, the IC50 with HLA-A*31:01 [18] is 0.357 µM.

Values taken from the Immune Epitope Database (IEDB).
